In PMC12012487:
Several values for one entry are separate records, joined by “and”; a condition that tells them apart may be missing. Equal values may be shown once.

Legend:
[1] = target: engineered strepII-tagged H77c-derived soluble native-like E1E2 (hepatitis C virus, strain H77c); experiment: mass photometry
[2] = target: engineered strepII-tagged H77c-derived soluble native-like E1E2 (Hepatitis C virus genotype 1a, isolate H77 (H77c)); experiment: mass photometry

Row | Substance | stoichiometry N [1] | relative abundance of the 1:1 E1E2:Ab complex [2] [%] | relative abundance of the 2:1 E1E2:Ab complex [2] [%] | stoichiometry N [2] | also measured
1 | AR4A/AR3C IgG3C- hinge bispecific antibody (CrossMab) | 1 E1E2:Ab |  |  |  | 
2 | AR4A/AR3C CamX6 hinge bispecific antibody (CrossMab) | 1 E1E2:Ab |  |  |  | 
3 | AR4A monoclonal antibody |  | 60 | 40 | 1 E1E2:Ab and 2 E1E2:Ab | 
4 | AR3C monoclonal antibody |  | 60 | 40 | 1 E1E2:Ab and 2 E1E2:Ab | 
5 | AR4A/AR3C IgG1 hinge bispecific antibody | 2 E1E2:Ab |  |  |  | relative abundance of the 2:1 E1E2:Ab complex [1]: 67%; stoichiometry N (E1E2:Ab (2:2 complex)) [1]: 1; stoichiometry N (E1E2:Ab (3:2 complex)) [1]: 1.5
